Laboratory results as given in publication doi:10.1101/2022.02.13.480285.

Biological target: SiaM (M-subunit of Photobacterium profundum SiaQM) (Photobacterium profundum)
Experiment: AUC

SiaQ (Q-subunit of Photobacterium profundum SiaQM) (natural protein)
stoichiometry N (SiaQ per SiaM): 1
